Measurements taken from paper PMC7866087, “Evaluation of Computationally Designed Peptides against TWEAK, a Cytokine of the Tumour Necrosis Factor Ligand Family” (International Journal of Molecular Sciences, 2021).

Tested on: TWEAK-Fn14 signalling pathway, BRV5 cells
Assay: Cell-based screening of individual peptides, gene expression microarray in TWEAK-stimulated BRV5 cells
Parameters: species or system human
Conditions: for BIRC2 expression Z-Score / HSP90B1 expression Z-Score / IL6 expression Z-Score / JUN expression Z-Score / MAP4K4 expression Z-Score / MAPK14 expression Z-Score / NFKB2 expression Z-Score / TNFRSF12A expression Z-Score / TRAF2 expression Z-Score: normalized to NARS2
Method in brief: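 Serum-starved BRV5 cells were treated with individual peptides at 450 µM, given once or re-dosed hourly, every two hours or every three hours, with or without TWEAK at 25 ng/mL. RNA was harvested after 6 h, and expression of TWEAK-Fn14 downstream genes plus two housekeeping genes was quantified by Fluidigm EvaGreen qPCR as Ct and delta Ct values.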

[1] = TWEAK control T, BRV5, 6 h, replicate column 3
[2] = TWEAK control T, BRV5, 6 h, replicate column 4
[3] = individual peptides, BRV5 + TWEAK, 450 µM, 6 h, mean of replicate columns
[4] = individual peptides, BRV5 + TWEAK, 450 µM, 6 h, replicate column 1
[5] = individual peptides, BRV5 + TWEAK, 450 µM, 6 h, replicate column 2
[6] = individual peptides, BRV5 + TWEAK, 6 h
[7] = individual peptides, BRV5 + TWEAK, 6 h, listed as T

B1: tumour necrosis factor-like weak inducer of apoptosis (protein, UniProt O43508 94-249, looked up)
Tumor necrosis factor ligand …: SAPKGRKTRARRAIAAHYEVHPRPGQDGAQAGVDGTVSGWEEARINSSSPLRYNRQIGEFIVTRAGLYYLYCQVHFDEGKAVYLKLDLLVDGVLALRCLEEFSATAASSLGPQLRLCQVSGLLALRPGSSLRIRTLPWAHLKAAPFLTYFGLFQVH
In the case of B1, the “BIRC2 mRNA expression (normalized to NARS2)” value [1] is reported as 1.027, the “HSP90B1 mRNA expression (normalized to NARS2)” value [1] is reported as 3.037 and the “JUN mRNA expression (normalized to NARS2)” value [1] is reported as 0.03535. The “MAP4K4 mRNA expression (normalized to NARS2)” value [1] was 0.2587, the “MAPK14 mRNA expression (normalized to NARS2)” value [1] was 0.3748 and the “NFKB2 mRNA expression (normalized to NARS2)” value [1] was 0.06251. The “TNFRSF12A mRNA expression (normalized to NARS2)” value [1] was 0.03969, the “TRAF2 mRNA expression (normalized to NARS2)” value [1] was 0.07995 and the “BIRC2 mRNA expression (normalized to NARS2)” value [2] was 1.011. For the same molecule, the “HSP90B1 mRNA expression (normalized to NARS2)” value [2] was 2.84, the “JUN mRNA expression (normalized to NARS2)” value [2] was 0.03216 and the “MAP4K4 mRNA expression (normalized to NARS2)” value [2] was 0.2342. For the same molecule, the “MAPK14 mRNA expression (normalized to NARS2)” value [2] was 0.332, the “NFKB2 mRNA expression (normalized to NARS2)” value [2] was 0.06133 and the “TNFRSF12A mRNA expression (normalized to NARS2)” value [2] was 0.03763. For the same molecule, the “TRAF2 mRNA expression (normalized to NARS2)” value [2] was 0.08704, the “BIRC2 mRNA expression (normalized to NARS2)” value [3] was 0.9889 and the “HSP90B1 mRNA expression (normalized to NARS2)” value [3] was 2.734. The “IL6 mRNA expression (normalized to NARS2)” value [3] was 0.00008785, the “JUN mRNA expression (normalized to NARS2)” value [3] was 0.02837 and the “MAP4K4 mRNA expression (normalized to NARS2)” value [3] was 0.2098. For the same molecule, the “MAPK14 mRNA expression (normalized to NARS2)” value [3] was 0.3339, the “NFKB2 mRNA expression (normalized to NARS2)” value [3] was 0.05526 and the “TNFRSF12A mRNA expression (normalized to NARS2)” value [3] was 0.03637. The “TRAF2 mRNA expression (normalized to NARS2)” value [3] was 0.06681, the “BIRC2 mRNA expression (normalized to NARS2)” value [4] was 0.9782 and the “HSP90B1 mRNA expression (normalized to NARS2)” value [4] was 2.649. For the same molecule, the “IL6 mRNA expression (normalized to NARS2)” value [4] was 0.0001501, the “JUN mRNA expression (normalized to NARS2)” value [4] was 0.02253 and the “MAP4K4 mRNA expression (normalized to NARS2)” value [4] was 0.1844. The “MAPK14 mRNA expression (normalized to NARS2)” value [4] was 0.3328, the “NFKB2 mRNA expression (normalized to NARS2)” value [4] was 0.05313 and the “TNFRSF12A mRNA expression (normalized to NARS2)” value [4] was 0.03435. For the same molecule, the “TRAF2 mRNA expression (normalized to NARS2)” value [4] was 0.05236, the “BIRC2 mRNA expression (normalized to NARS2)” value [5] was 0.9396 and the “HSP90B1 mRNA expression (normalized to NARS2)” value [5] was 2.412. For the same molecule, the “IL6 mRNA expression (normalized to NARS2)” value [5] was 0.00002557, the “JUN mRNA expression (normalized to NARS2)” value [5] was 0.02345 and the “MAP4K4 mRNA expression (normalized to NARS2)” value [5] was 0.162. The “MAPK14 mRNA expression (normalized to NARS2)” value [5] was 0.2958, the “NFKB2 mRNA expression (normalized to NARS2)” value [5] was 0.04407 and the “TNFRSF12A mRNA expression (normalized to NARS2)” value [5] was 0.03379. For the same molecule, the “TRAF2 mRNA expression (normalized to NARS2)” value [5] was 0.04788, the “BIRC2 expression Z-Score” value [6] was 2.98 and the “HSP90B1 expression Z-Score” value [6] was 0.8798. The “IL6 expression Z-Score” value [6] was -1.558, the “JUN expression Z-Score” value [6] was -0.7938 and the “MAP4K4 expression Z-Score” value [6] was 0.6195. The “MAPK14 expression Z-Score” value [6] was 2.332, the “NFKB2 expression Z-Score” value [6] was 1.408 and the “TNFRSF12A expression Z-Score” value [6] was 1.8. For the same molecule, the “TRAF2 expression Z-Score” value [6] was 2.292, the “BIRC2 expression Z-Score” value [7] was 2.9803 and the “HSP90B1 expression Z-Score” value [7] was 0.8798. For the same molecule, the “IL6 expression Z-Score” value [7] was -1.5585, the “JUN expression Z-Score” value [7] was -0.7938 and the “MAP4K4 expression Z-Score” value [7] was 0.6195. For the same molecule, the “MAPK14 expression Z-Score” value [7] was 2.3319, the “NFKB2 expression Z-Score” value [7] was 1.4080 and the “TNFRSF12A expression Z-Score” value [7] was 1.8000. The “TRAF2 expression Z-Score” value [7] was 2.2919.
